From US20230212549A1 (3B PHARMACEUTICALS, published 2023)
Numbered stars: 1 amine (or outer) side, 2 acyl side, 3 side chain; on linkers, the order of the positions; unused ones are H or OH. Bridge positions count the residues as written; N and C are the ends. Square brackets hold non-standard residues; d marks the D form. Primed or numbered codes have the meaning given here. * marks the point of attachment. Ttds″ = 1,13-diamino-4,7,10-trioxatridecan-succinamic acid spacer, O=C(CCC(=O)[*:2])NCCCOCCOCCOCCCN[*:1]; Ttds(4) = spacer between chelator and peptide, O=C(CCC(=O)[*:2])NCCCOCCOCCOCCCN[*:1]; DOTA = O=C(O)CN1CCN(CC(=O)O)CCN(CC(=O)*)CCN(CC(=O)O)CC1; mXylylene = c1cc(C[*:1])cc(C[*:2])c1; 4Pal = N[C@@H](Cc1ccncc1)C(=O)O; 4Amb = NCc1ccc(C(=O)O)cc1; Nle = CCCC[C@H](N)C(=O)O; Hexanoyl = CCCCCC(=O)*; NH(CH2)5NH2 = NCCCCCN*; Omp = not defined here; GABA = NCCCC(=O)O

Tests used:
[1] = target: T1, Recombinant human FAP (R&D systems, #3715-SE) (human, UniProt Q12884 26-760); experiment: SPR (Biacore T200), FAP captured on anti-FAP antibody, single cycle kinetics
T1 construct: bought; in SPR captured on immobilized anti-FAP antibody MAB3715; also called rhFAP; human recombinant FAP

[2] = target: Recombinant human FAP (R&D systems, #3715-SE) (human, UniProt Q12884 26-760); experiment: cell-based or functional assay
[3] = target: T2, fibroblast activation protein (FAP) on FAP-expressing human WI-38 fibroblasts (human, UniProt Q12884 1-760); experiment: competitive FACS, WI-38 cells, vs Cy5 tracer m3; A = pIC50 >8.0
T2 construct: also called human FAP

B1: DOTA-Ttds-Nle-[Cys(3MeBn)-Pro-Pro-Thr-Gln-Phe-Cys]-Asp-NH2 (peptide)
peptide: {DOTA}-[Ttds(4)][Nle]CPPTQFCD-NH2
modifications: linker 3-9 via mXylylene
SMILES: CCCC[C@H](NC(=O)CCC(=O)NCCCOCCOCCOCCCNC(=O)CN1CCN(CC(=O)O)CCN(CC(=O)O)CCN(CC(=O)O)CC1)C(=O)N[C@H]1CSCc2cccc(c2)CSC[C@@H](C(=O)N[C@@H](CC(=O)O)C(N)=O)NC(=O)[C@H](Cc2ccccc2)NC(=O)[C@H](CCC(N)=O)NC(=O)[C@H]([C@@H](C)O)NC(=O)[C@@H]2CCCN2C(=O)[C@@H]2CCCN2C1=O
notes: also called 3BP-3401
pKD Category [1]: > 8 pKD

B2: Hex-[Cys(3MeBn)-Pro-Pro-Thr-Glu-Phe-Cys]-Asp-Gab-Arg-NH2 (peptide)
peptide: Hexanoyl-CPPTEFCD[GABA]R-NH2
modifications: linker 1-7 via mXylylene
SMILES: CCCCCC(=O)N[C@H]1CSCc2cccc(c2)CSC[C@@H](C(=O)N[C@@H](CC(=O)O)C(=O)NCCCC(=O)N[C@@H](CCCNC(=N)N)C(N)=O)NC(=O)[C@H](Cc2ccccc2)NC(=O)[C@H](CCC(=O)O)NC(=O)[C@H]([C@@H](C)O)NC(=O)[C@@H]2CCCN2C(=O)[C@@H]2CCCN2C1=O
notes: also called 3BP-3300
pKD Category [1]: > 8 pKD

B3: Hex-[Cys(3MeBn)-Pro-Pro-Thr-Gln-Phe-Cys]-Asp-Ttds-Lys(DOTA)-NH2 (peptide)
peptide: Hexanoyl-CPPTQFCD[Ttds″]K(DOTA)-NH2
modifications: linker 1-7 via mXylylene
SMILES: CCCCCC(=O)N[C@H]1CSCc2cccc(c2)CSC[C@@H](C(=O)N[C@@H](CC(=O)O)C(=O)NCCCOCCOCCOCCCNC(=O)CCC(=O)N[C@@H](CCCCNC(=O)CN2CCN(CC(=O)O)CCN(CC(=O)O)CCN(CC(=O)O)CC2)C(N)=O)NC(=O)[C@H](Cc2ccccc2)NC(=O)[C@H](CCC(N)=O)NC(=O)[C@H]([C@@H](C)O)NC(=O)[C@@H]2CCCN2C(=O)[C@@H]2CCCN2C1=O
notes: also called 3BP-3395
pKD Category [1]: > 8 pKD

B4: Ac-Met-[Cys(3MeBn)-Pro-Pro-Thr-Glu-Phe-Cys]-Asp-His-Phe-Arg-Asp-NH2 (peptide)
peptide: Ac-MCPPTEFCDHFRD-NH2
modifications: linker 2-8 via mXylylene
SMILES: CSCC[C@H](NC(C)=O)C(=O)N[C@H]1CSCc2cccc(c2)CSC[C@@H](C(=O)N[C@@H](CC(=O)O)C(=O)N[C@@H](Cc2c[nH]cn2)C(=O)N[C@@H](Cc2ccccc2)C(=O)N[C@@H](CCCNC(=N)N)C(=O)N[C@@H](CC(=O)O)C(N)=O)NC(=O)[C@H](Cc2ccccc2)NC(=O)[C@H](CCC(=O)O)NC(=O)[C@H]([C@@H](C)O)NC(=O)[C@@H]2CCCN2C(=O)[C@@H]2CCCN2C1=O
notes: also called 3BP-2975
pKD Category [1]: > 8 pKD

B5: Hex-[Cys(tMeBn(DOTA-AET))-Pro-Pro-Thr-Glu-Phe-Cys]-NH2 (peptide)
peptide: Hexanoyl-CPPTEFC-NH2
modifications: linker 1-7 via tMeBn(DOTA-AET)
notes: also called 3BP-3653
pKD Category [1]: > 8 pKD

B6: Hex-[Cys(3MeBn)-Pro-Pro-Thr-Glu-Phe-Cys]-Asp-Omp-Arg-NH2 (peptide)
peptide: Hexanoyl-CPPTEFCD[Omp]R-NH2
modifications: linker 1-7 via mXylylene; reading uncertain; also: printed as Hex-[Cys(3MeBn)-Pro-Pro-Thr-Glu-Phe-Cys]-Asp-Omp-Arg-NH2
notes: also called 3BP-3302
pIC50 Category (Activity) [2]: > 8 pIC50
pIC50 Category (FACS) [3]: > 8 pIC50

B7: Ac-[Cys(3MeBn)-Pro-Pro-Thr-Glu-Phe-Cys]-Asp-His-Phe-Arg-Asp-NH2 (peptide)
peptide: Ac-CPPTEFCDHFRD-NH2
modifications: linker 1-7 via mXylylene
SMILES: CC(=O)N[C@H]1CSCc2cccc(c2)CSC[C@@H](C(=O)N[C@@H](CC(=O)O)C(=O)N[C@@H](Cc2c[nH]cn2)C(=O)N[C@@H](Cc2ccccc2)C(=O)N[C@@H](CCCNC(=N)N)C(=O)N[C@@H](CC(=O)O)C(N)=O)NC(=O)[C@H](Cc2ccccc2)NC(=O)[C@H](CCC(=O)O)NC(=O)[C@H]([C@@H](C)O)NC(=O)[C@@H]2CCCN2C(=O)[C@@H]2CCCN2C1=O
notes: also called 3BP-3202
pKD Category [1]: > 8 pKD

B8: Hex-[Cys(3MeBn)-Pro-Pro-Thr-Glu-Phe-Cys]-Asp-Arg-NH2 (peptide)
peptide: Hexanoyl-CPPTEFCDR-NH2
modifications: linker 1-7 via mXylylene
SMILES: CCCCCC(=O)N[C@H]1CSCc2cccc(c2)CSC[C@@H](C(=O)N[C@@H](CC(=O)O)C(=O)N[C@@H](CCCNC(=N)N)C(N)=O)NC(=O)[C@H](Cc2ccccc2)NC(=O)[C@H](CCC(=O)O)NC(=O)[C@H]([C@@H](C)O)NC(=O)[C@@H]2CCCN2C(=O)[C@@H]2CCCN2C1=O
notes: also called 3BP-3299
pIC50 Category (Activity) [2]: > 8 pIC50
pIC50 Category (FACS) [3]: > 8 pIC50

B9: Hex-[Cys(3MeBn)-Pro-Pro-Thr-Glu-Phe-Cys]-Asp-His-Ppa-arg-Ttds-Lys(DOTA)-NH2 (peptide)
peptide: Hexanoyl-CPPTEFCDH[4Pal][dR][Ttds″]K(DOTA)-NH2
modifications: linker 1-7 via mXylylene
SMILES: CCCCCC(=O)N[C@H]1CSCc2cccc(c2)CSC[C@@H](C(=O)N[C@@H](CC(=O)O)C(=O)N[C@@H](Cc2c[nH]cn2)C(=O)N[C@@H](Cc2ccncc2)C(=O)N[C@H](CCCNC(=N)N)C(=O)NCCCOCCOCCOCCCNC(=O)CCC(=O)N[C@@H](CCCCNC(=O)CN2CCN(CC(=O)O)CCN(CC(=O)O)CCN(CC(=O)O)CC2)C(N)=O)NC(=O)[C@H](Cc2ccccc2)NC(=O)[C@H](CCC(=O)O)NC(=O)[C@H]([C@@H](C)O)NC(=O)[C@@H]2CCCN2C(=O)[C@@H]2CCCN2C1=O
notes: also called 3BP-3277
pIC50 Category (Activity) [2]: > 8 pIC50
pIC50 Category (FACS) [3]: > 8 pIC50

B10: Hex-[Cys(3MeBn)-Pro-Pro-Thr-Glu-Phe-Cys]-Asp-Pamb-Arg-NH2 (peptide)
peptide: Hexanoyl-CPPTEFCD[4Amb]R-NH2
modifications: linker 1-7 via mXylylene
SMILES: CCCCCC(=O)N[C@H]1CSCc2cccc(c2)CSC[C@@H](C(=O)N[C@@H](CC(=O)O)C(=O)NCc2ccc(C(=O)N[C@@H](CCCNC(=N)N)C(N)=O)cc2)NC(=O)[C@H](Cc2ccccc2)NC(=O)[C@H](CCC(=O)O)NC(=O)[C@H]([C@@H](C)O)NC(=O)[C@@H]2CCCN2C(=O)[C@@H]2CCCN2C1=O
notes: also called 3BP-3301
pIC50 Category (Activity) [2]: > 8 pIC50
pIC50 Category (FACS) [3]: > 8 pIC50

B11: Hex-[Cys(3MeBn)-Pro-Pro-Thr-Glu-Phe-Cys]-Asp-His-Phe-Arg-Asp-NH2 (peptide)
peptide: Hexanoyl-CPPTEFCDHFRD-NH2
modifications: linker 1-7 via mXylylene
SMILES: CCCCCC(=O)N[C@H]1CSCc2cccc(c2)CSC[C@@H](C(=O)N[C@@H](CC(=O)O)C(=O)N[C@@H](Cc2c[nH]cn2)C(=O)N[C@@H](Cc2ccccc2)C(=O)N[C@@H](CCCNC(=N)N)C(=O)N[C@@H](CC(=O)O)C(N)=O)NC(=O)[C@H](Cc2ccccc2)NC(=O)[C@H](CCC(=O)O)NC(=O)[C@H]([C@@H](C)O)NC(=O)[C@@H]2CCCN2C(=O)[C@@H]2CCCN2C1=O
pKD Category [1]: > 8 pKD

B12: Hex-[Cys(3MeBn)-Pro-Pro-Thr-Gln-Phe-Cys]-Asp-Ape-NH-DOTA′ (peptide)
peptide: Hexanoyl-CPPTQFCD-{NH(CH2)5NH2-DOTA′}
modifications: linker 1-7 via mXylylene
notes: also called 3BP-3403
pKD Category [1]: > 8 pKD

B13: Hex-[Cys(tMeBn(DOTA-AET))-Pro-Pro-Thr-Gln-Phe-Cys]-Ser-OH (peptide)
peptide: Hexanoyl-CPPTQFCS-OH
modifications: linker 1-7 via tMeBn(DOTA-AET)
notes: also called 3BP-3658
pKD Category [1]: > 8 pKD

B14: Hex-[Cys(tMeBn(DOTA-AET))-Pro-Pro-Thr-Gln-Phe-Cys]-Gly-OH (peptide)
peptide: Hexanoyl-CPPTQFCG-OH
modifications: linker 1-7 via tMeBn(DOTA-AET)
notes: also called 3BP-3656
pKD Category [1]: > 8 pKD

B15: Hex-[Cys(3MeBn)-Pro-Pro-Thr-Glu-Phe-Cys]-Asp-NH2 (peptide)
peptide: Hexanoyl-CPPTEFCD-NH2
modifications: linker 1-7 via mXylylene
SMILES: CCCCCC(=O)N[C@H]1CSCc2cccc(c2)CSC[C@@H](C(=O)N[C@@H](CC(=O)O)C(N)=O)NC(=O)[C@H](Cc2ccccc2)NC(=O)[C@H](CCC(=O)O)NC(=O)[C@H]([C@@H](C)O)NC(=O)[C@@H]2CCCN2C(=O)[C@@H]2CCCN2C1=O
notes: also called 3BP-3288
pKD Category [1]: > 8 pKD
